Experimental data as given in patent US20250026813A1 (published 2025).

Experiments:
[1] = target: T1, S2 subunit of the SARS-CoV-2 spike protein (Sino Biological 40590-V08B), His tag (SARS-CoV-2, UniProt P0DTC2 686-1213)
T1 construct: domain: S2 subunit

[2] = target: SARS-CoV-2 spike protein receptor binding domain (isolated RBD) (SARS-CoV-2, UniProt P0DTC2 319-541)

B1: IMPI-029 (antibody, V domains shown)
VH: EVQLVESGGGLIQPGGSLRLSCAASGVTVSSNYMNWVRQAPGKGLEWVSVIYSGGSTYYADSVKGRFTISRDNSKNTLFLQMNSLRAEDSAVYYCARDLGPYGVDVWGQGTTVTVSS
VL: DIQLTQSPSFLSASVGDRVTITCWASQGISSYLAWYQQKPGKAPKLLIYAASTLQSGVPSRFSGSGSGTEFTLTISSLQPEDFATYYCQELNSYPLTFGQGTRLEIK
- HTRF deltaF [1]: 4.1 deltaF

B2: IMPI-017 (antibody, V domains shown)
VH: EVQLVESGGGLIQPGGSLRLSCAAAGLTVSSNYMNWVRQVPGKGLEWVSVIYSGGSTYYADSVKGRFTISRDNSKNTLYLQMNSLRAEDTAVYYCARDLGTLGMDVWGQGTTVTVSS
VL: DIQLTQSPSFLSASVGDRVTITCWASQGISTYLAWYQQKPGKAPKLLIYAASTLQSGVPSRFSGSGSGTEFTLTISSLQPEDFATYYCQQLNSYLPTFGQGTKVEIK
- Kd [2]: 1.87 nM
- koff [2]: 0.000976 s⁻¹
- kon [2]: 522000 M⁻¹ s⁻¹

B3: IMPI-037 (antibody, V domains shown)
VH: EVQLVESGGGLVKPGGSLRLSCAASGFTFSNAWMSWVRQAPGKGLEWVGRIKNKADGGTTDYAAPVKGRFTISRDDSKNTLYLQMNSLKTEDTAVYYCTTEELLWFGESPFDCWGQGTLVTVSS
VL: DIQLTQSPSFLSASVGDRVTITCWASQGINSYLAWYQQKPGKAPKLLIYAASTLQSGVPSRFSGSGSGTEFTLTISSLQPEDFTTYYCQQFNDYPRTFGPGTKVEIK
- Kd [2]: 9.28 nM
- koff [2]: 0.0232 s⁻¹
- kon [2]: 2.5e+06 M⁻¹ s⁻¹

B4: IMPI-047 (antibody, V domains shown)
VH: EVQLVESGGGLIQPGGSLRLSCAASGFTVSSNYMNWVRQAPGKGLEWVSVIYSGGSTYYADSVKGRFTISRDNSKNTLYLQMNSLRTEDTAVYYCARDLVAYGMDVWGQGTTVTVSS
VL: DIQLTQSPSFLSASVGDRVTITCWASQGISSYLAWYQQKPGKAPKVLIYAASTLQSGVPSRFSGSGSGTEFTLTISSLQPEDFATYYCQLLNSNPLTFGGGTKVEIK
- Kd [2]: 2.38 nM
- koff [2]: 0.000878 s⁻¹
- kon [2]: 368000 M⁻¹ s⁻¹

B5: IMPI-029 (antibody, V domains shown)
VH: EVQLVESGGGLIQPGGSLRLSCAASGVTVSSNYMNWVRQAPGKGLEWVSVIYSGGSTYYADSVKGRFTISRDNSKNTLFLQMNSLRAEDSAVYYCARDLGPYGVDVWGQGTTVTVSS
VL: DIQLTQSPSFLSASVGDRVTITCWASQGISSYLAWYQQKPGKAPKLLIYAASTLQSGVPSRFSGSGSGTEFTLTISSLQPEDFATYYCQELNSYPLTFGQGTRLEIK
- Kd [2]: 0.195 nM
- koff [2]: 0.000157 s⁻¹
- kon [2]: 808000 M⁻¹ s⁻¹

B6: IMPI-021 (antibody, V domains shown)
VH: EVQLVESGGGLIQPGGSLRLSCAASGVTVSSNYMSWVRQAPGKGLEWVSVIYSGGSTFYADSVKGRFTISRDNSKNTLYLQMNSLRAEDTAVYYCARDLSYYGMDVWGQGTTVTVSS
VL: DIQLTQSPSFLSASVGDRVTITCWASQGISSYLAWYQQKPGKAPKLLIYAASTLQSGVPSKFSGSGSGTEFTLTISSLQPEDFATYYCQQLNSYPCSFGQGTKLEIK
- Kd [2]: 8.08 nM
- koff [2]: 0.00443 s⁻¹
- kon [2]: 548000 M⁻¹ s⁻¹

B7: IMPI-005 (antibody, V domains shown)
VH: EVQLVESGGGLIQPGGSLRLSCAASGFTVSSNYMNWVRQAPGKGLEWVSVIYSGGSTYYADSVKGRFTISRDNSKNTLFLQMNSLRAEDSAVYYCARDLGPYGVDVWGQGTTVTVSS
VL: DIQLTQSPSFLSASVGDRVTITCWASQGISSYLAWYQQKPGKAPKLLIYAASTLQSGVPSRFSGSGSGTEFTLTISSLQPEDFATYYCQELNSYPLTFGQGTRLEIK
- Kd [2]: 3.09 nM
- koff [2]: 0.0071 s⁻¹
- kon [2]: 2.3e+06 M⁻¹ s⁻¹

B8: IMPI-060 (antibody, V domains shown)
VH: EVQLVESGGGLIQPGGSLRLSCAASGVTVSSNYMSWVRQAPGKGLEWVSVIYSGGSTFYADSVKGRFTISRDNSKNTLYLQMNSLRAEDTAVYYCARDLSYYGMDVWGQGTTVTVSS
VL: DIQLTQSPSFLSASVGDRVTITCWASQGISSYLAWYQQKPGKAPKLLIYAASTLQSGVPSKFSGSGSGTEFTLTISSLQPEDFATYYCQQLNSYPSSFGQGTKLEIK
- Kd [2]: 59.2 nM
- koff [2]: 0.0277 s⁻¹
- kon [2]: 469000 M⁻¹ s⁻¹

B9: IMPI-056 (antibody, V domains shown)
VH: EVQLVESGGGLIQPGGSLRLSCAASGLTVSSNYMNWVRQAPGKKLEWVSVIYSGGSTFYADSVRGRFTISRDNSKNTLFLQMNSLRAEDSAVYYCARDLGPYGVDVWGQGTTVTVSS
VL: DIQLTQSPSFLSASVGDRVTITCWASQGISSYLAWYQQKPGKAPKLLIYAASTLQSGVPSRFSGSGSGTEFTLTISSLQPEDFATYYCQQLNSYPLTFGQGTRLEIK
- Kd [2]: 0.44 nM

B10: IMPI-038 (antibody, V domains shown)
VH: QVQLVESGGGVVQPGRSLRLSCAASGFTFSSYGMHWVRQAPGKGLEWVAVISYDGSDKYYADSVKGRFTISRDNSKNTLYLQMNSLRAEDTAVYYCAKTVAGYYYYYYGMDVWGQGTTVTVSS
VL: DIQMTQSPSSVSASVGDRVTVTCRASQDISSWLAWFQQKPGKAPKFLIYDASNLENGVPSRFSGSGSGTDFTLTISSLQPEDFATYYCQQAKSFPWTFGQGTKVEIN
- Kd [2]: 2.92 nM

B11: IMPI-054 (antibody, V domains shown)
VH: EVQLVESGGGLIQPGGSLRLSCAASGLTVSSNYMSWVRQAPGKGLEWVSIIYSGGSTYYADSVKGRFTISRDNSKNTLYLQMNSLRAEDTAVYYCARLGGYYYYGMDVWGQGTTVTVSS
VL: DIQMTQSPSSLSASVGERVTITCQASQDIRNYLNWYQKKPGKAPKLLIYDSSNLETGVPSRFSGSGSGTDFTFTISSLQPEDIATYYCQQYDNLPITFGQGTRLEIK
- Kd [2]: 1.11 nM
- koff [2]: 0.000627 s⁻¹
- kon [2]: 564000 M⁻¹ s⁻¹

B12: IMPI-042 (antibody, V domains shown)
VH: EVQLVESGGGLIQPGGSLRLSCAASGLTVSSNYMSWVRQAPGKGLEWVSIIYSGGSTYYADSVKGRFTISRDNSKNTLYLQMNSLRAEDTAVYYCARLGGYYYYGMDVWGQGTTVTVSS
VL: DIQMTQSPSSLSASVGERVTITCQASQDIRNYLNWYQKKPGKAPKLLIYDSSNLETGVPSRFSGGGSGTDFTFTISSLQPEDIATYYCQQYDNLPITFGQGTRLEIK
- Kd [2]: 1.15 nM
- koff [2]: 0.000617 s⁻¹
- kon [2]: 536000 M⁻¹ s⁻¹

B13: IMPI-024 (antibody, V domains shown)
VH: EVQLVQSGAEVKKPGESLKISCKGSGYSFTSYWIGWVRQMPGKGLEWMGIIYPGDSDTRYSPSFQGQVTISADKSISTAYLQWSSLKASDTAMYYCVRSYNWNYFDYWGQGTLVTVSS
VL: AIQLTQSPSSLSASVGDRVTITCRASQGISSGLAWYQQKAGKAPKLLIYDVSSLESGVPSRFSGSGSGTDFTLTISSLQPEDFATYYCQQFLSYPWTFGQGTKVEIK
- HTRF deltaF [1]: -15.4 deltaF

B14: IMPI-027 (antibody, V domains shown)
VH: QVQLQESGPGLVKPSQTLSLTCTVSGGSISSYGYYWNWIRQHPGKGLEWIGYIYYSGSTYYNPSLKSRVTISVDTSKNQLSLRLNSVSAADTAVYYCARDFGGNSNYFDYWGQGTLVTVSS
VL: AIQLTQSPSSLSASVGDRVTITCRTSQGISSALAWYQQKPGKAPKLLIYDASSLESGVPSRFSGSGSGTDFTLTISSLQPEDFATYYCQQFNSYPLTFGGGTKVEIK
- Kd [2]: 4.06 nM
- koff [2]: 26.3 s⁻¹
- kon [2]: 6.48e+09 M⁻¹ s⁻¹

B15: IMPI-068 (antibody, V domains shown)
VH: QVQLVESGGDVVQPGRSLRLSCAASGFTFSRYGMHWVRQAPGKGLEWVAVISYDGSDKYYADSVKGRFTISRDNSKNTLYLQMNSLRAEDTAVYYCAKQLPLYYYYYGMDVWGQGTTVTVSS
VL: AIQLTQSPSSLSASVGDRVTITCRASQGISSALAWYQQKPGKAPNLLIYDASSLESGVPSRFSGSGSGTDFTLTISSLQPEDFATYYCQQFNIYPHTFGPGTKVDIK
- Kd [2]: 40.5 nM

B16: IMPI-024 (antibody, V domains shown)
VH: EVQLVQSGAEVKKPGESLKISCKGSGYSFTSYWIGWVRQMPGKGLEWMGIIYPGDSDTRYSPSFQGQVTISADKSISTAYLQWSSLKASDTAMYYCVRSYNWNYFDYWGQGTLVTVSS
VL: AIQLTQSPSSLSASVGDRVTITCRASQGISSGLAWYQQKAGKAPKLLIYDVSSLESGVPSRFSGSGSGTDFTLTISSLQPEDFATYYCQQFLSYPWTFGQGTKVEIK
- Kd [2]: 0.633 nM
- koff [2]: 0.00134 s⁻¹
- kon [2]: 2.12e+06 M⁻¹ s⁻¹

B17: IMPI-033 (antibody, V domains shown)
VH: QVQLQESGPGLVKPSQTLSLTCTVSGGSISSYGYYWSWIRQHPGKGLEWIGYIYYSGSTYYNPSLKSRVTMSVDTSKNQLSLRLNSVSAADTAVYYCARDFGGNSNYFDYWGQGTLVTVSS
VL: AIQLTQSPSSLSASVGDRVTITCRASQGISSALAWYQQKPGKAPNLLIYDASSLESGVPSRFSGSGSGTDFTLTISSLQPEDFATYYCQQFNSSPLTFGGGTKVEIK
- Kd [2]: 3.37 nM
- koff [2]: 0.00741 s⁻¹
- kon [2]: 2.2e+06 M⁻¹ s⁻¹

B18: IMPI-006 (antibody, V domains shown)
VH: QLQLQESGPGLVKPSETLSLTCTVSGGSISNSNYYWGWIRQPPGKGLEWIGSIYYSGRTYYNPSLKSRVTISVDTSKNQFSLKLSSVTAADTAVYYCARMGLLWFGEFYGMDVWGQGTTVTVSS
VL: DIQMTQSPSSLSASVGDRVTITCRASQGISSWLAWYQQKPEKAPKSLIYDASSLQRGVPSRFSGSGSGTDFTLTISSLQPEDFASYYCQQYNSYPLTFGGGTRVEIK
- Kd [2]: 0.88 nM
- koff [2]: 8.19 s⁻¹
- kon [2]: 9.3e+09 M⁻¹ s⁻¹

B19: IMPI-055 (antibody, V domains shown)
VH: QVQLVQSGAEVKKPGASVKVSCKASGYTFTSYDINWVRQATGQGLEWMGWMNPNSGNTGYAQKFQGRVTMTRDTSINTAYMELSSLRSEDTAVYFCARGGRYCSDVTCYSGEPFDYWGQGTLVTVSS
VL: EIMLTQSPDFQSVTPKEKVTITCRASQSIGSSLHWYQQKPDQSPKLLIKFASQSISGVPSRFSGSGSGTDFTLTINSLEAEDAAAYYCHQSSSLPHTFGPGTKVEIK
- Kd [2]: 0.959 nM
- koff [2]: 0.00264 s⁻¹
- kon [2]: 2.75e+06 M⁻¹ s⁻¹

B20: IMPI-059 (antibody, V domains shown)
VH: EVQLVESGGGLIQPGGSLRLSCAASGFTVSSIYMSWVRQAPGKGLEWVSIIYSRGSTDYADSVKGRFTISRDISKNTLYLQMNSLRAEDTAVYYCARDGTMVRGVHAFDIWGQGTMVTVSS
VL: DIQMTQSPPSLSASIGDRVTITCQASQDISNYLNWYQQKPGKAPKLLIYDASNLETGVPSRFSGSGSGTDFTLTISNLQPEDIVTYYCQQYDNLPSSFGQGTKLEIK
- Kd [2]: 0.646 nM
- koff [2]: 0.00426 s⁻¹
- kon [2]: 6.59e+06 M⁻¹ s⁻¹
